The record followed here is paper PMC5608758, “A brain-targeting lipidated peptide for neutralizing RNA-mediated toxicity in Polyglutamine Diseases” (Scientific Reports, 2017).

One data set has as its target expanded MJD CAG78 RNA. Description: Isothermal titration calorimetry binding assay, expanded CAG RNA. Conditions: ITC, 25 °C, 20 mM MOPS pH 7.0, 300 mM NaCl; 0.7 mM peptide titrated into 0.5 µM MJD CAG78 RNA; one binding site model; mean ± S.E.M., at least 3 independent experiments. On the procedure:
Experiments were carried out using a MicroCal iTC200 isothermal titration calorimeter (GE Healthcare) at 25 °C. Data were analyzed using the Origin® scientific plotting software version 7 (Microcal Software Inc.). All RNAs and peptides were dissolved in binding buffer (20 mM MOPS, pH 7.0; 300 mM NaCl) and 0.7 mM of peptide was titrated into 0.5 µM of RNA for each experiment. The concentration of RNA was estimated with appropriate extinction coefficients at 260 nm on a Nanodrop 2000 (Thermo Scientific). A reference power of 8 μcal/s was used with an initial 0.5 µl of injection of peptide followed by 2 µl for all subsequent titrations points with a 60 sec initial equilibrium delay and 150 sec pause between injections. The samples were stirred at a speed of 1000 rpm throughout the experiment. The thermal titration data were fitted to the ‘one binding site model’ to determine the dissociation constant (KD). Each experiment was repeated at least 3 times with consistent results obtained.
(In ITC the heat of successive injections is recorded.)

Another data set relates to P3V8. The data set can be described thus: ITC. Conditions: ITC (MicroCal iTC200): 20 mM MOPS pH 7.0, 300 mM NaCl, 25 C; 0.7 mM peptide titrated into 0.5 uM RNA; one-site model; errors are SEM, n>=3.
The test system of the next data set is P3 (P3WT). The data set can be described thus: ITC. The following applies: ITC (MicroCal iTC200): 20 mM MOPS pH 7.0, 300 mM NaCl, 25 C; 0.7 mM peptide titrated into 0.5 uM RNA; one-site model; errors are SEM, n>=3.
A further data set deals with P3MT1. Description: ITC. Conditions: ITC (MicroCal iTC200): 20 mM MOPS pH 7.0, 300 mM NaCl, 25 C; 0.7 mM peptide titrated into 0.5 uM RNA; one-site model; errors are SEM, n>=3.
The test system of a further data set is P3MT2. The data set can be described thus: ITC. Conditions: ITC (MicroCal iTC200): 20 mM MOPS pH 7.0, 300 mM NaCl, 25 C; 0.7 mM peptide titrated into 0.5 uM RNA; one-site model; errors are SEM, n>=3.
A further data set concerns P3MT3. Description: ITC. The following applies: ITC (MicroCal iTC200): 20 mM MOPS pH 7.0, 300 mM NaCl, 25 C; 0.7 mM peptide titrated into 0.5 uM RNA; one-site model; errors are SEM, n>=3.
For the next data set, the system named is P3MT4. The data set can be described thus: ITC. The following applies: ITC (MicroCal iTC200): 20 mM MOPS pH 7.0, 300 mM NaCl, 25 C; 0.7 mM peptide titrated into 0.5 uM RNA; one-site model; errors are SEM, n>=3.
Another data set relates to P3MT5. The data set can be described thus: ITC. Conditions: ITC (MicroCal iTC200): 20 mM MOPS pH 7.0, 300 mM NaCl, 25 C; 0.7 mM peptide titrated into 0.5 uM RNA; one-site model; errors are SEM, n>=3.
In a further data set the test system is P3V1. The data set can be described thus: ITC. Conditions: ITC (MicroCal iTC200): 20 mM MOPS pH 7.0, 300 mM NaCl, 25 C; 0.7 mM peptide titrated into 0.5 uM RNA; one-site model; errors are SEM, n>=3.
The next data set has as its system P3V2. Description: ITC. The following applies: ITC (MicroCal iTC200): 20 mM MOPS pH 7.0, 300 mM NaCl, 25 C; 0.7 mM peptide titrated into 0.5 uM RNA; one-site model; errors are SEM, n>=3.
A further data set concerns P3V3. Description: ITC. The following applies: ITC (MicroCal iTC200): 20 mM MOPS pH 7.0, 300 mM NaCl, 25 C; 0.7 mM peptide titrated into 0.5 uM RNA; one-site model; errors are SEM, n>=3.
A further data set deals with P3V4. The data set can be described thus: ITC. The following applies: ITC (MicroCal iTC200): 20 mM MOPS pH 7.0, 300 mM NaCl, 25 C; 0.7 mM peptide titrated into 0.5 uM RNA; one-site model; errors are SEM, n>=3.
In the next data set the test system is P3V5. The data set can be described thus: ITC. Conditions: ITC (MicroCal iTC200): 20 mM MOPS pH 7.0, 300 mM NaCl, 25 C; 0.7 mM peptide titrated into 0.5 uM RNA; one-site model; errors are SEM, n>=3.
The next data set has as its system P3V6. Description: ITC. Conditions: ITC (MicroCal iTC200): 20 mM MOPS pH 7.0, 300 mM NaCl, 25 C; 0.7 mM peptide titrated into 0.5 uM RNA; one-site model; errors are SEM, n>=3.
The test system of the next data set is P3V7. Description: ITC. The following applies: ITC (MicroCal iTC200): 20 mM MOPS pH 7.0, 300 mM NaCl, 25 C; 0.7 mM peptide titrated into 0.5 uM RNA; one-site model; errors are SEM, n>=3.
A further data set has as its system P3V9. Description: ITC. Conditions: ITC (MicroCal iTC200): 20 mM MOPS pH 7.0, 300 mM NaCl, 25 C; 0.7 mM peptide titrated into 0.5 uM RNA; one-site model; errors are SEM, n>=3.

Entries after “also recorded” stand apart in the source; their conditions may differ. Non-standard residues stand in square brackets, D forms with d. Residues, ends and D or L forms follow the SMILES beside them. hArg = N=C(N)NCCCC[C@H](N)C(=O)O; Orn = NCCC[C@H](N)C(=O)O

Consider `CC[C@H](C)[C@H](NC(=O)CNC(=O)[C@H](CCCCN)NC(=O)[C@H](CO)NC(=O)[C@H](CCCN)NC(=O)CNC(=O)[C@H](CC(=O)O)NC(C)=O)C(=O)N[C@@H](C)C(=O)N[C@@H](Cc1ccc(O)cc1)C(=O)N[C@H](C(=O)N[C@@H](CCC(=O)O)C(=O)N[C@@H](Cc1ccccc1)C(=O)N[C@@H](CCCCN)C(N)=O)[C@@H](C)CC` [P3V16] (Ac-DG[Orn]SKGIAYIEFK-NH2), for which the KD entry on expanded MJD CAG78 RNA is “No binding”.

Regarding `CC[C@H](C)[C@H](NC(=O)CNC(=O)[C@H](CCCCNC(=N)N)NC(=O)[C@H](CO)NC(=O)[C@H](CCCCN)NC(=O)CNC(=O)[C@H](CC(=O)O)NC(C)=O)C(=O)N[C@@H](C)C(=O)N[C@@H](Cc1ccc(O)cc1)C(=O)N[C@H](C(=O)N[C@@H](CCC(=O)O)C(=O)N[C@@H](Cc1ccccc1)C(=O)N[C@@H](CCCCN)C(N)=O)[C@@H](C)CC` [P3V15] (Ac-DGKS[hArg]GIAYIEFK-NH2), at expanded MJD CAG78 RNA, the KD result is reported as “No binding”.

One may read the Kd as the constant that tells how readily two partners part at equilibrium. As for Ac-DGRSRGIAYIEFK-NH2 [P3V9], at expanded MJD CAG78 RNA, the Kd was 2.34 ± 0.49 µM.

MJD CAA/G78 RNA (expanded, interrupted) registered a Kd in the data set with P3V8 of 2.94 µM. That is a single-digit micromolar value.

Regarding `CC[C@H](C)[C@H](NC(=O)CNC(=O)[C@H](CCCN)NC(=O)[C@H](CO)NC(=O)[C@H](CCCCN)NC(=O)CNC(=O)[C@H](CC(=O)O)NC(C)=O)C(=O)N[C@@H](C)C(=O)N[C@@H](Cc1ccc(O)cc1)C(=O)N[C@H](C(=O)N[C@@H](CCC(=O)O)C(=O)N[C@@H](Cc1ccccc1)C(=O)N[C@@H](CCCCN)C(N)=O)[C@@H](C)CC` [P3V17] (Ac-DGKS[Orn]GIAYIEFK-NH2), on expanded MJD CAG78 RNA, the KD entry is recorded as “No binding”.

With MJD CAG78 RNA (expanded), the Kd in the data set on P3 (P3WT) is 8.37 µM; in the data set on P3MT1, 31.3 µM; in the data set on P3MT2, 101 µM; in the data set on P3MT3, 16.6 µM; in the data set with P3MT4, 17.4 µM; with P3MT5 it was 51.3 µM. For the same compound, the Kd with P3V1 stood at 2 µM; in the data set on P3V2, 2.21 µM; with P3V3, 1.74 µM; with P3V4, 4.44 µM; with P3V5, 0.86 µM; in the data set with P3V6, 23.8 µM. In addition, the values for the Kd with P3V7, in the data set on P3V8 and with P3V9 were 3.67 µM, 0.33 µM and 2.34 µM, respectively.

Turning to “Ac-DGKSKGIAYIEFKGDGKSKGIAYIEFK-NH2 [P3V21]”, the KD result at expanded MJD CAG78 RNA is “No binding; also recorded: did not show any binding”.

Turning to “Ac-DGKSKGIAYIEFKDGKSKGIAYIEFK-NH2 [P3V20]”, on expanded MJD CAG78 RNA, the KD result is “No binding; also recorded: did not show any binding”.

In the case of `CC[C@H](C)[C@H](NC(=O)CNC(=O)[C@H](CCCCN)NC(=O)[C@H](CO)NC(=O)[C@H](CCCCNC(=N)N)NC(=O)CNC(=O)[C@H](CC(=O)O)NC(C)=O)C(=O)N[C@@H](C)C(=O)N[C@@H](Cc1ccc(O)cc1)C(=O)N[C@H](C(=O)N[C@@H](CCC(=O)O)C(=O)N[C@@H](Cc1ccccc1)C(=O)N[C@@H](CCCCN)C(N)=O)[C@@H](C)CC` [P3V14] (Ac-DG[hArg]SKGIAYIEFK-NH2), the KD result at expanded MJD CAG78 RNA is listed as “No binding”.

In the data set on P3V8, MJD CAG27 RNA (unexpanded) showed a Kd of 2.19 µM.
